Assays:
GM-CSFRα = biological target: T1, GM-CSFRα (Homo sapiens (Human), UniProt P15509 23-320); assay: biolayer interferometry, HT12-GL on the sensor, GM-CSFRa-His in solution
T1 construct: also called GM-CSFRa; GM-CSFRa sample; not shown: His tag
T1 sequence: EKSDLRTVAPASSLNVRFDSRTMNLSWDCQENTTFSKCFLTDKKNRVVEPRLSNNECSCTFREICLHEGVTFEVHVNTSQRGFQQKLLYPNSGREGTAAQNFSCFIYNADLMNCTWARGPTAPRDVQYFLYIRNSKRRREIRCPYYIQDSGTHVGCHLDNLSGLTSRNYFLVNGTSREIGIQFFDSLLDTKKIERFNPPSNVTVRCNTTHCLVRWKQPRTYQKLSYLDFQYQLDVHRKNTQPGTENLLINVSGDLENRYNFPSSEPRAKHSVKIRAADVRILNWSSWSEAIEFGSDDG
Method: (§1) Biolayer interferometry binding experiments were performed using an Octet RED384 instrument, with all measurements made at 30° C. AHC biosensor probes were soaked in kinetics buffer (PBS pH 7.2+0.02% Tween-20, 0.1% BSA, 0.05% sodium azide) for 10 minutes, followed by baseline signal measurement in kinetics buffer for 60 seconds. […] For binding to hIL3-Rα, the antibody-loaded biosensor tips were dipped in binding buffer for 60 sec (baseline), followed by immersion in a solution containing dilutions of hIL3-Rα (10-0.16 μg/mL) for 300 sec (association), and subsequent immersion in kinetics buffer for 400 sec (dissociation). For binding to hIL5-Rα and GM-CSFRa, all steps were the same except the concentration of antigen was increased (50-1.56 μg/mL) and the dissociation step was decreased to 300 sec. The signal from a buffer only reference sample was subtracted, and all curves were fit with a 1:1 binding model to determine KD values.

[1] = biological target: T2, mouse IL3Rα expressed on 293 cells (mouse, UniProt P26952 17-396); assay: flow cytometry with Alexa 647 labelled antibody on Ad293 cells expressing mouse IL3Ra, geometric mean
T2 construct: whole, on cells; also called mouse CD123
T2 sequence (looked up): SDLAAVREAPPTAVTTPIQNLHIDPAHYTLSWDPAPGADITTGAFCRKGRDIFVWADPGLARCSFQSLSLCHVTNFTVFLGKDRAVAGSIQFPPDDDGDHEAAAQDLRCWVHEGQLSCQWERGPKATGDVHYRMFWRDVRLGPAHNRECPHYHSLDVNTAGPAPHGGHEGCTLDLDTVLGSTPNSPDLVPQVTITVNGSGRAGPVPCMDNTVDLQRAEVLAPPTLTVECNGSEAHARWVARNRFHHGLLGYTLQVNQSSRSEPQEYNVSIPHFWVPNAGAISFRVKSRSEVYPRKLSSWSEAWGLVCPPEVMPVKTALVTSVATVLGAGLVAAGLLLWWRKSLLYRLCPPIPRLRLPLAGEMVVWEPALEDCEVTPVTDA
Method: AD293 cells were maintained in DMEM (Dulbecco's Modified Eagle Medium) containing 10% heat-inactivated fetal bovine serum (FBS) and were cultured in a humidified atmosphere of 5% CO2 and at a temperature of 37° C. On the day of plating, cells were spun down at 1500 rpm for 3 minutes, counted, and resuspended to a final concentration of 0.3×10⁶ cells/ml. Two hundred μl of cells were plated to wells of 96 well microtiter plate. Plates were spun down at 1500 rpm for 3 minutes and flicked to remove media. One hundred μl of FACs buffer (PBS [Phosphate Buffer Saline]+2% FBS) was added to the wells. Plates were then spun again as above followed by addition of primary antibody in 100 μl of FACS buffer. […] Antibody concentration started at 12 μg/ml followed by six 1:3 dilutions (no antibody control was also run). Plates were incubated at 4° C. for 30 minutes. Following incubation plates were washed 3 times by spinning down at 1500 rpm for 3 minutes, flicked and 100 μl of FACS buffer were added. Following a final wash, 100 μl of FACS buffer containing live/dead DAPI (diamidino-2-phenylindole) stain was added to the plates. […] Flow data was analyzed in FlowJo software.

human IL-5Rα = biological target: T3, human IL-5Rα (human, UniProt Q01344 21-342, limits assumed); assay: biolayer interferometry, HT12-GL on the sensor, Sample ID: hIL5Ra-his in solution
T3 construct: Soluble analyte in the Octet assay; construct not described; also called hIL5-Rα; human IL-5Ra sample
T3 sequence (looked up): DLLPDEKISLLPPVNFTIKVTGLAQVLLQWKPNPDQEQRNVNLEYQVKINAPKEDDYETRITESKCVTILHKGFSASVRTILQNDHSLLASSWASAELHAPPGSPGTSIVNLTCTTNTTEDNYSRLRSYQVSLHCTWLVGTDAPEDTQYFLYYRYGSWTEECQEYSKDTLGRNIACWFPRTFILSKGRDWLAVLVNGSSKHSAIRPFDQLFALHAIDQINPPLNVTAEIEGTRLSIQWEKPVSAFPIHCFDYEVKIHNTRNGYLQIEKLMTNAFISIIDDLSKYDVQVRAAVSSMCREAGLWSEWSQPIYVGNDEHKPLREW
Method: as §1

B1: HT12-GL antibody (antibody, human IgG1, kappa, V domains shown)
VH: EVQLLESGGGLVQPGGSLRLSCAASGFTFNIYAMTWVRQAPGKGLEWVSGISAGGDSTYYADSVKGRFTISRDNSKNTLYLQMNSLRAEDTAVYYCAKDRGYYYGMDVWGQGTTVTVSS
VL: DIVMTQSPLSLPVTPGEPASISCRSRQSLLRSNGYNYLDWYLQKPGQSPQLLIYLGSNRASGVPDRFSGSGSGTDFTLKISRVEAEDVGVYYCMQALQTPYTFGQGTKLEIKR
notes: elsewhere unlabeled with a secondary antibody; also called HT12-GL mAb; CD123 mAb
- binding result (GM-CSFRα): no binding
- binding result [1]: no binding (tested: log 1.1 ug/ml (about 12 ug/ml))
- binding result (human IL-5Rα): no binding

— patent publication US20250051463A1 (AstraZeneca / MedImmune, published 2025)
